Fewer inactive variants are shown than the library holds.
Tests used:
biotinyl-Phe-oxazolone = assay: self-aminoacylation, catalytic enhancement (BFO) (fold over background); higher = more active; k-Seq, kA / k0A0; sequences stand for … in GGGAAUGGAUCCACAUCUACGAAUUC…UUCACUGCAGACUUGACGAAGCUG
Method in brief: (§1)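 Each biotinyl-aminoacyl-oxazolone, at 2–1250 μM, was incubated with mutagenized RNA pools (0.43 μM) carrying a 21-nt variable region. The 50 μL reactions contained HEPES/NaCl/KCl/MgCl2/CaCl2 buffer with 5% acetonitrile at pH 6.9–7.0 and ran for 90 minutes at room temperature. After streptavidin capture, RNA was measured by qPCR in triplicate and by Illumina sequencing, and catalytic enhancement was calculated as median kA over the uncatalyzed rate from a pseudo-first-order fit of per-sequence fraction reacted.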

biotinyl-Met-oxazolone = assay: self-aminoacylation, catalytic enhancement (BMO) (fold over background); higher = more active; k-Seq, kA / k0A0; sequences stand for … in GGGAAUGGAUCCACAUCUACGAAUUC…UUCACUGCAGACUUGACGAAGCUG
Method in brief: as §1

biotinyl-Ile-oxazolone = assay: self-aminoacylation, catalytic enhancement (BIO) (fold over background); higher = more active; k-Seq, kA / k0A0; sequences stand for … in GGGAAUGGAUCCACAUCUACGAAUUC…UUCACUGCAGACUUGACGAAGCUG
Method in brief: as §1

biotinyl-Trp-oxazolone = assay: self-aminoacylation, catalytic enhancement (BWO) (fold over background); higher = more active; k-Seq, kA / k0A0; sequences stand for … in GGGAAUGGAUCCACAUCUACGAAUUC…UUCACUGCAGACUUGACGAAGCUG
Method in brief: as §1

biotinyl-Val-oxazolone = assay: self-aminoacylation, catalytic enhancement (BVO) (fold over background); higher = more active; k-Seq, kA / k0A0; sequences stand for … in GGGAAUGGAUCCACAUCUACGAAUUC…UUCACUGCAGACUUGACGAAGCUG
Method in brief: as §1

biotinyl-Leu-oxazolone = assay: self-aminoacylation, catalytic enhancement (BLO) (fold over background); higher = more active; k-Seq, kA / k0A0; sequences stand for … in GGGAAUGGAUCCACAUCUACGAAUUC…UUCACUGCAGACUUGACGAAGCUG
Method in brief: as §1

| Sequence | self-aminoacylation (biotinyl-Phe-oxazolone) | self-aminoacylation (biotinyl-Met-oxazolone) | self-aminoacylation (biotinyl-Ile-oxazolone) | self-aminoacylation (biotinyl-Trp-oxazolone) | self-aminoacylation (biotinyl-Val-oxazolone) | self-aminoacylation (biotinyl-Leu-oxazolone) |
| --- | --- | --- | --- | --- | --- | --- |
| AUUCACCUAGGUAAUCGGCUG [Fam2.2 aminoacylation ribozyme variant] | 0.486 | 1.23 | 0.944 | 1.2 | 1.02 | 1.31 |
| AUUACCCUCGUCACCGAGUGA [Fam2.1 aminoacylation ribozyme variant] | 21.2 | 4.34 | 2.33 | 5.5 | 2.74 | 4.63 |
| CCACUCUUCAAGCAAGCGGUC [Fam1B.1 aminoacylation ribozyme variant] | 0.629 | 0.806 | 0.909 | 0.585 | 0.97 | 1.09 |
| AAGUUUGCUAAAUGUCGCAAG [Fam3.1 aminoacylation ribozyme variant] | 0.96 | 0.876 | 1 | 0.74 | 0.837 | 1.1 |
| AUUCACAUAAGUCAUCGGGUG [Fam2.2 aminoacylation ribozyme variant] | 95.4 | 11.8 | 7.61 | 12.4 | 6.79 | 18.3 |
| CCACUCUUCAAGCAAUCGAUC [Fam1B.1 aminoacylation ribozyme variant] | 1.28 | 0.448 | 0.542 | 0.516 | 0.735 | 0.522 |
| AUUCACCCAGAUCAUCGGGUG [Fam2.2 aminoacylation ribozyme variant] | 7.26 | 1.82 | 1.85 | 1.84 | 2.26 | 2.43 |
| CUACUGCUAACAAUCGGUCUG [Fam1A.1 aminoacylation ribozyme variant] | 0.437 | 0.491 | 0.538 | 0.418 | 0.559 | 0.597 |
| CUACGUCACACAAUCGGUCUG [Fam1A.1 aminoacylation ribozyme variant] | 0.794 | 0.943 | 0.999 | 0.986 | 0.962 | 0.98 |
| AUUACCCUGGUCAUCGCGAGA [Fam2.1 aminoacylation ribozyme variant] | 1.58 | 1.68 | 2.17 | 2.72 | 2.21 | 1.44 |
| AAGUUUGAUAAAAGUCGCAAG [Fam3.1 aminoacylation ribozyme variant] | 2.15 | 1.64 | 1.51 | 1.46 | 1.22 | 1.13 |
| AUUACCCUGGUCGACGAGUGA [Fam2.1 aminoacylation ribozyme variant] | 26.4 | 5.53 | 2.86 | 6.05 | 3.33 | 5.32 |
| CCACACUUCAAGCUACCGGUC [Fam1B.1 aminoacylation ribozyme variant] | 0.832 | 0.931 | 1.23 | 0.946 | 1.3 | 1.2 |
| CCACACUACAAGCAAUGGGUC [Fam1B.1 aminoacylation ribozyme variant] | 0.762 | 0.778 | 0.72 | 0.735 | 0.842 | 0.511 |
| AUUCACCUAGGUCAUCGGAGG [Fam2.2 aminoacylation ribozyme variant] | 0.759 | 0.898 | 0.829 | 0.621 | 1.03 | 0.991 |
| CUACUUCAAACAUUCGGUUUG [Fam1A.1 aminoacylation ribozyme variant] | 0.613 | 1.05 | 1.17 | 1.43 | 1.2 | 0.962 |
| AUUCACCUAGUUCUUCGGGUG [Fam2.2 aminoacylation ribozyme variant] | 18.1 | 2.71 | 2.2 | 2.9 | 2.43 | 3.31 |
| AAGUUUGCUAAUCGGCGCAAG [Fam3.1 aminoacylation ribozyme variant] | 2.32 | 1.03 | 0.842 | 0.944 | 1.14 | 1.05 |
| GAGAUUGCUAAUAGUCGCAAG [Fam3.1 aminoacylation ribozyme variant] | 1.8 | 1.67 | 1.88 | 2.94 | 1.98 | 1.52 |
| AUUCACCUAGGUCAUCGCGGG [Fam2.2 aminoacylation ribozyme variant] | 10.7 | 3.25 | 2.97 | 2.25 | 2.47 | 4.05 |
| CUCCUCCAAACAAUCGGUCUG [Fam1A.1 aminoacylation ribozyme variant] | 2.28 | 0.973 | 1.06 | 2.85 | 0.846 | 0.846 |
| AUUCACCUGGCUCAUCGGGUG [Fam2.2 aminoacylation ribozyme variant] | 18.3 | 1.79 | 2.18 | 2.44 | 3.81 | 3.2 |
| AUGCUCCUAGGUCAUCGGGUG [Fam2.2 aminoacylation ribozyme variant] | 37.6 | 7.47 | 5.26 | 7.13 | 4.4 | 8.92 |
| CCACACUUCAAGAAAUCGGUG [Fam1B.1 aminoacylation ribozyme variant] | 55.3 | 6.53 | 4.82 | 8.37 | 3.53 | 10.6 |
| CCACCCUUUAAGCAAUCGGUC [Fam1B.1 aminoacylation ribozyme variant] | 1.34 | 0.892 | 1.16 | 0.888 | 1.21 | 0.983 |
| AAGUUCGCUAAUAUUCGCAAG [Fam3.1 aminoacylation ribozyme variant] | 2.16 | 1.36 | 1.71 | 1.25 | 1.65 | 1.84 |

| Sequence | self-aminoacylation (biotinyl-Phe-oxazolone) | self-aminoacylation (biotinyl-Met-oxazolone) | self-aminoacylation (biotinyl-Ile-oxazolone) | self-aminoacylation (biotinyl-Trp-oxazolone) | self-aminoacylation (biotinyl-Val-oxazolone) | self-aminoacylation (biotinyl-Leu-oxazolone) |
| --- | --- | --- | --- | --- | --- | --- |
| CCUCACUUCAAGCAAUCGCUC [Fam1B.1 aminoacylation ribozyme variant] | 1.27 | 1.15 | 1.16 | 0.912 | 1.18 | 1.36 |
| AUUACCGUGGUCCUCGAGUGA [Fam2.1 aminoacylation ribozyme variant] | 29.2 | 4.11 | 2.57 | 4.82 | 3.69 | 4.19 |
| GCACACUUCAAUCAAUCGGUC [Fam1B.1 aminoacylation ribozyme variant] | 34.4 | 1.58 | 1.73 | 26.4 | 1.69 | 1.98 |
| CCACACUUCAAGCUAUCGGUU [Fam1B.1 aminoacylation ribozyme variant] | 0.942 | 1.18 | 1.29 | 0.897 | 1.43 | 1.12 |
| AAGUUUGCGAAUGGUCGCAAG [Fam3.1 aminoacylation ribozyme variant] | 5.78 | 0.97 | 0.908 | 1.47 | 1.11 | 0.728 |
| AUUACCCCGGUCAGCGAGUGA [Fam2.1 aminoacylation ribozyme variant] | 31.4 | 4.82 | 3.32 | 5.45 | 3.28 | 4.92 |
| CUACUACAAACCAUCGGUCUG [Fam1A.1 aminoacylation ribozyme variant] | 0.739 | 0.845 | 0.837 | 0.765 | 0.822 | 0.702 |
| CUACUACAAACAAUCGGGCUG [Fam1A.1 aminoacylation ribozyme variant] | 0.456 | 0.989 | 1.16 | 0.83 | 1.05 | 1.07 |
| AUUACACGGGUCAUCGAGUGA [Fam2.1 aminoacylation ribozyme variant] | 21.7 | 4.62 | 2.64 | 5.36 | 3.1 | 4.33 |
| AUUACCCUGGUCAUCGCGUGC [Fam2.1 aminoacylation ribozyme variant] | 16.8 | 3.35 | 2.81 | 4.47 | 2.75 | 4.64 |
| AUUCACCGAGGUCAUGGGGUG [Fam2.2 aminoacylation ribozyme variant] | 86.3 | 11.4 | 6.15 | 11.4 | 6.55 | 14.7 |
| GAGUUUGCUAAUAGGCGCAAG [Fam3.1 aminoacylation ribozyme variant] | 1.4 | 0.961 | 0.982 | 1.35 | 0.836 | 1.02 |
| AUUCACCUAGGUCCUAGGGUG [Fam2.2 aminoacylation ribozyme variant] | 4.72 | 2.55 | 2.06 | 3.15 | 1.75 | 4.26 |
| CUACUUAAAACAAUCGGGCUG [Fam1A.1 aminoacylation ribozyme variant] | 0.623 | 1.05 | 1.31 | 0.924 | 1.02 | 0.999 |
| AUUUACCUAGGUCAACGGGUG [Fam2.2 aminoacylation ribozyme variant] | 29.2 | 4.05 | 2.56 | 3.56 | 2.26 | 4.95 |
| CCACACUUCAAGCAAUGGGUU [Fam1B.1 aminoacylation ribozyme variant] | 0.91 | 1.14 | 1.22 | 1.46 | 1.71 | 1.39 |
| CUACCUCAAAUAAUCGGUCUG [Fam1A.1 aminoacylation ribozyme variant] | 1.1 | 1.08 | 1.05 | 1.23 | 0.863 | 1.12 |
| UAGGUUGCUAAUAGUCGCAAG [Fam3.1 aminoacylation ribozyme variant] | 1.91 | 1.2 | 1.4 | 2.01 | 1.2 | 1.15 |
| AUUACCCUGGUAAUCUAGUGA [Fam2.1 aminoacylation ribozyme variant] | 86.4 | 13 | 5.57 | 15.9 | 5.92 | 12.4 |
| AUUCGCCUGGGUCAUCGGGUG [Fam2.2 aminoacylation ribozyme variant] | 63.1 | 12.9 | 6 | 14.1 | 7.88 | 15.8 |
| CCACACGUCUAGCAAUCGGUC [Fam1B.1 aminoacylation ribozyme variant] | 0.972 | 0.9 | 1.01 | 0.768 | 1.15 | 0.937 |
| ACUAGCCUGGUCAUCGAGUGA [Fam2.1 aminoacylation ribozyme variant] | 30.2 | 4.28 | 3.66 | 5.21 | 3.68 | 4.72 |
| CUACGUCAGACAAUCGGUCUG [Fam1A.1 aminoacylation ribozyme variant] | 1.67 | 1.86 | 1.61 | 0.99 | 1.42 | 1.28 |
| AUUCGCCUAGGUCAUCGGGCG [Fam2.2 aminoacylation ribozyme variant] | 2.39 | 4.99 | 3.22 | 4.35 | 3.59 | 5.67 |
| UUACUACAAACAAUCGGUCUG [Fam1A.1 aminoacylation ribozyme variant] | 1.62 | 0.904 | 1.04 | 1.31 | 0.833 | 0.856 |

— the supplement of paper PMC9233669
